The values below come from patent US20100291088A1.

Holding throughout (assay): cell-based or functional assay
One assay addresses NEM-huIL-18 (human) (UniProt Q14116).
The next assay concerns the target (4C/A)-huIL-18 (human) (UniProt Q14116).
For assay [1], the target named is natural human IL-18 (human) (UniProt Q14116).

B1: 268 (antibody, V domains shown)
VH: ZVQLVESGGGVVQPGRSLRLSCAASGFTFRNYGLHWVRQAPGKGLEWVAVIWYDGSNKYYADSVKGRFTISRDNSKNTLYLQMNSLRAEDTAVYYCARESYYYYGMDVWGQGTTVTVSS
VL: EIVMTQSPATLSVSPGERATLSCRASQSFNSNLVWYQQKPGQAPRLLIYGASTRATGIPARFSGSGSGTEFTLTISSLQSEDFAVYYCQQYNNWTWTFGQGTKVEIKR
Turning to B1, in the assay with NEM-huIL-18 (human), the KG-1 Assays (IC50, M) stood at 7e-09 M.

B2: Murine anti-human IL-18 mAb (125-2H) (antibody, from another filing, V domains shown)
VH: EIQLQQSGPELVKPGASVKVSCKASGYSFTDYFIYWVKQSHGKSLEWIGDIDPYNGDTSYNQKFRDKATLTVDQSSTTAFMHLNSLTSEDSAVYFCARGLRFWGQGTLVTVSA
VL: DIQMTQSPSSLSASLGERVSLTCRASQDIGSKLYWLQQEPDGTFKRLIYATSSLDSGVPKRFSGSRSGSDYSLTISSLESEDFVDYYCLQYASSPYTFGGGTKLAIKR
Take B2: the KG-1 neutralization potency in vitro (IC50, nM) in the assay with (4C/A)-huIL-18 (human) was determined as 0.2 nM. The same molecule came in with a WBA neutralization potency in vitro (IC50, nM) in assay [1] of 3 nM.
